The values that follow come from the supplement of paper PMC5949888.

The test system of this data set is Saccharomyces cerevisiae PS128 hsf1 delta, HSF1(1-493) fusion. Description: growth estimate (transactivation domain function in HSF1 fusion, heat-shock survival) (a.u. (slope of normalised read count over time)); higher = stronger growth at 37°C, i.e. more transactivation activity. As to conditions: library: design library. In short, it runs like this:
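Designed transactivation-domain oligos were fused to truncated yeast HSF1 (amino acids 1–493) and expressed in an hsf1-deleted yeast strain. Cells were replica-plated onto –trp 5-FOA plates and incubated at 30°C or 37°C for 0, 2, 4, 6 and 8 days. Inserts were PCR-amplified and Illumina MiSeq-sequenced as six barcoded replicates from one experiment. Growth estimate is the slope of a robust linear fit over time of read counts normalised to sample totals and starting count.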
Regarding TMDDVGNYLFDD, the growth estimate was < -0.25. Take TMDDVKNYLFDD: the growth estimate was < -0.25. As for TMDDVPNYLFDD, the growth estimate is -0.232.

For the sequence TMDDVRNYLFDD, the growth estimate was < -0.25. For TMDDVYAYLFDD, the growth estimate was 4.4.

On to TMDDVYGYLFDD, for which the growth estimate is 0.586. Take TMDDVYKYLFDD: the growth estimate is 0.872. As for TMDDVYNGLFDD, the growth estimate is < -0.25. Regarding TMDDVYNKLFDD, the growth estimate was < -0.25. For TMDDVYNPLFDD, the growth estimate was < -0.25.

In the case of TMDDVYNRLFDD, the growth estimate is -0.242. For the sequence TMDDVYNYKFDD, the growth estimate was < -0.25. As for TMDDVYNYLADD, the growth estimate is 0.274. For the sequence TMDDVYNYLFAD, the growth estimate was 1.32.

Turning to TMDDVYNYLFDA, the growth estimate is 0.681. Consider TMDDVYNYLFDG, for which the growth estimate is 0.0766. The value for TMDDVYNYLFDK was -0.18.

TMDDVYNYLFDP: the growth estimate is 1.58. Turning to TMDDVYNYLFDR, the growth estimate is -0.243.

Regarding TMDDVYNYLFGD, the growth estimate was 1.05. Regarding TMDDVYNYLFKD, the growth estimate is < -0.25. In the case of TMDDVYNYLFPD, the growth estimate is 1.69. As to TMDDVYNYLFRD, the growth estimate was -0.0803. Take TMDDVYNYLGDD: the growth estimate is -0.149. The value for TMDDVYNYLKDD was < -0.25; that for TMDDVYNYLPDD was < -0.25; that for TMDDVYNYLRDD was < -0.25. TMDDVYNYRFDD: the growth estimate was -0.0969. For the sequence TMDDVYPYLFDD, the growth estimate was 0.27. In the case of TMDDVYRYLFDD, the growth estimate was 1.71.

Turning to TMGDVYNYLFDD, the growth estimate was 0.113. Take TMKDVYNYLFDD: the growth estimate was < -0.25. On to TMPDVYNYLFDD, for which the growth estimate was -0.0795. As for TPDDVYNYLFDD, the growth estimate was < -0.25.

As to TRDDVYNYLFDD, the growth estimate is -0.222. With VAADIWEELLSEDL, the growth estimate is 1.83. Turning to VADAIWEELLSEDL, the growth estimate is 0.167. On to VADDAWEELLSEDL, for which the growth estimate is -0.24. The result for VADDGWEELLSEDL reads < -0.259; that for VADDIAEELLSEDL, -0.224; that for VADDIPEELLSEDL, -0.228. Take VADDIWAELLSEDL: the growth estimate was 8.23. For VADDIWEALLSEDL, the growth estimate was 8.8. As to VADDIWEEALSEDL, the growth estimate was -0.233. Regarding VADDIWEEKLSEDL, the growth estimate was < -0.25. VADDIWEELASEDL: the growth estimate was < -0.25.

As to VADDIWEELGSEDL, the growth estimate was -0.221. For VADDIWEELKSEDL, the growth estimate was -0.188. As for VADDIWEELLAEDL, the growth estimate was 2.64. Turning to VADDIWEELLGEDL, the growth estimate is 2.11. Take VADDIWEELLKEDL: the growth estimate was 7.64.

Consider VADDIWEELLPEDL, for which the growth estimate is -0.022. The value for VADDIWEELLREDL was 10.8.

On to VADDIWEELLSADL, for which the growth estimate is 3.11. For VADDIWEELLSEAL, the growth estimate is 5.63. The value for VADDIWEELLSEDA was -0.0522; that for VADDIWEELLSEDG was 0.0334; that for VADDIWEELLSEDK was -0.0473. Consider VADDIWEELLSEDL, for which the growth estimate was 0.661. The value for VADDIWEELLSEDP was 0.229. The value for VADDIWEELLSEDR was 0.315; that for VADDIWEELLSEGL was 10.4; that for VADDIWEELLSEKL was 3.04.

In the case of VADDIWEELLSEPL, the growth estimate was 5.18. Regarding VADDIWEELLSERL, the growth estimate was 5.09. Consider VADDIWEELLSGDL, for which the growth estimate was 3.96.
